The values below come from paper PMC5072561.

The stoichiometry N is a count of units in the complex or per binding partner.

Experiment [1] deals with tunA (tunicate A, CBY12809.1), Oikopleura dioica S100 protein (Oikopleura dioica). The experiment is described as follows: AUC; sedimentation velocity; ~50 uM protein; 25 mM TES, 100 mM NaCl, 1 mM TCEP, pH 7.4; interference optics; c(s) by SedFit; monomer to dimer.
Experiment [2] shares this target. Put plainly: native MS; nanoESI time-of-flight MS; 10 or 100 mM ammonium acetate, pH 7.4; protein diluted from 10 uM to 0.01 uM; monomer to dimer.
Experiment [3] addresses tunB (tunicate B, CBY30360.1), Oikopleura dioica S100 protein (Oikopleura dioica). Put plainly: AUC; sedimentation velocity; ~50 uM protein; 25 mM TES, 100 mM NaCl, 1 mM TCEP, pH 7.4; interference optics; c(s) by SedFit; monomer to dimer.
The target is the same in experiment [4]. Put plainly: native MS; nanoESI time-of-flight MS; 10 or 100 mM ammonium acetate, pH 7.4; protein diluted from 10 uM to 0.01 uM; monomer to dimer.

As for “tunA (tunicate A, CBY12809.1), Oikopleura dioica S100 protein (natural protein)”, the stoichiometry N in experiment [1] and in experiment [2] was 2 in each case.
Turning to “tunB (tunicate B, CBY30360.1), Oikopleura dioica S100 protein (natural protein)”, the stoichiometry N in experiment [3] and in experiment [4] was 2 in each case.
